{"source": "patent US20120058906A1", "about": "(published 2012);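 note: blank spot per well as comparator with Hit at signal to blank ratio of 4 or more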", "key": {"[1]": {"target": "T1, Recombinant Human DLL4 (R&D Systems Cat#1506-D4/CF) (human, UniProt Q9NR61 27-524)", "T1 construct": "also called delta-like protein 4", "test": "MSD ECL multi-spot plate; Fab 130 nM; blank spot 1153"}, "[2]": {"target": "T2, rHuman CD44/Fc Chimera, CF (R&D Systems Cat#3660-CD) (human, UniProt P16070 21-220)", "T2 construct": "Fc part of the bought chimera not given", "test": "MSD ECL multi-spot plate; Fab 130 nM; blank spot 1153"}, "[3]": {"target": "T3, rHuman EGF R/Fc Chimera, CF (R&D Systems Cat#344-ER) (human, UniProt P00533 25-645)", "T3 construct": "also called epidermal growth factor receptor; Fc part of the bought chimera not given", "test": "MSD ECL multi-spot plate; Fab 130 nM; blank spot 1153"}, "[4]": {"target": "T4, rHuman Notch-1/Fc Chimera, CF (R&D Systems Cat#3647-TK) (human, UniProt P46531 19-526)", "T4 construct": "Fc part of the bought chimera not given", "test": "MSD ECL multi-spot plate; Fab 130 nM; blank spot 1153"}, "[5]": {"target": "T5, rHuman ErbB2/Fc Chimera, CF (R&D Systems Cat#1129-ER) (human, UniProt P04626 23-652)", "T5 construct": "also called HER2/neu; human epidermal growth factor 2 receptor; Fc part of the bought chimera not given", "test": "MSD ECL multi-spot plate; Fab 130 nM; blank spot 1153"}, "[6]": {"target": "T6, rHuman IGF-1 sR, (IGF-1 sR), CF (R&D Systems Cat#391-GR) (human, UniProt P08069 31-932)", "T6 construct": "also called insulin-like growth factor-1 soluble receptor; IGF-R1", "test": "MSD ECL multi-spot plate; Fab 130 nM; blank spot 1153"}, "[7]": {"target": "T7, Recombinant Human DLL4 (R&D Systems Cat#1506-D4/CF) (human, UniProt Q9NR61 27-524)", "T7 construct": "Bought recombinant protein; also called rHuman DLL4; delta-like protein 4", "test": "MSD ECL titration, Fab 595.8 nM, blank 285"}, "[8]": {"target": "T8, rHuman ErbB2/Fc Chimera, CF (R&D Systems Cat#1129-ER) (human, UniProt P04626 23-652)", "T8 construct": "Bought Fc chimera; also called HER2/neu; Fc part of the bought chimera not given", "test": "MSD ECL titration, Fab 595.8 nM, blank 285"}, "[9]": {"target": "T9, rHuman HGF R/c-MET/Fc Chimera, CF (R&D Systems Cat#358-MT/CF) (human, UniProt P08581 25-932)", "T9 construct": "Bought Fc chimera; also called HGF R/Fc; Fc part of the bought chimera not given", "test": "MSD ECL titration, Fab 595.8 nM, blank 285"}, "[10]": {"target": "T10, rHuman Erythropoietin R/Fc Chimera, CF (R&D Systems Cat#963-ER) (human, UniProt P19235 25-250)", "T10 construct": "Bought Fc chimera; also called EPO R/Fc; EPOR; Fc part of the bought chimera not given", "T10 sequence": "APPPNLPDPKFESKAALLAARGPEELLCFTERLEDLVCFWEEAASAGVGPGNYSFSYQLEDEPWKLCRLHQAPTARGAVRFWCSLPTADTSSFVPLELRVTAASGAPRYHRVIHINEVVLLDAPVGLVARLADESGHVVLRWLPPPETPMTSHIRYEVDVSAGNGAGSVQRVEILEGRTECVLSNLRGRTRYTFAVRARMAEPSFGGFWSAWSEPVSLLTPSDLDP", "test": "MSD ECL titration, Fab 595.8 nM, blank 285"}, "[11]": {"target": "T11, rHuman ErbB2/Fc Chimera, CF (R&D Systems Cat#1129-ER) (human, UniProt P04626 23-652)", "T11 construct": "Bought Fc chimera; also called human epidermal growth factor 2 receptor; HER2/neu; Fc part of the bought chimera not given", "test": "ECL (MSD Multi-Spot) binding, antigen spotted on plate; Fab 50 nM"}, "[12]": {"target": "T12, rHuman P-Cadherin/Fc Chimera, CF (R&D Systems Cat#861-PC) (human, UniProt P22223 108-654)", "T12 construct": "Bought Fc chimera; Fc part of the bought chimera not given", "test": "ECL (MSD Multi-Spot) binding, antigen spotted on plate; Fab 50 nM"}, "[13]": {"target": "T13, rHuman CD44/Fc Chimera, CF (R&D Systems Cat#3660-CD) (human, UniProt P16070 21-220)", "T13 construct": "Bought Fc chimera; Fc part of the bought chimera not given", "test": "ECL (MSD Multi-Spot) binding, antigen spotted on plate; Fab 50 nM"}, "[14]": {"target": "T14, rHuman Erythropoietin R/Fc Chimera, CF (R&D Systems Cat#963-ER) (human, UniProt P19235 25-250)", "T14 construct": "Bought Fc chimera; also called EPO R/Fc; erythropoietin receptor; Fc part of the bought chimera not given", "T14 sequence": "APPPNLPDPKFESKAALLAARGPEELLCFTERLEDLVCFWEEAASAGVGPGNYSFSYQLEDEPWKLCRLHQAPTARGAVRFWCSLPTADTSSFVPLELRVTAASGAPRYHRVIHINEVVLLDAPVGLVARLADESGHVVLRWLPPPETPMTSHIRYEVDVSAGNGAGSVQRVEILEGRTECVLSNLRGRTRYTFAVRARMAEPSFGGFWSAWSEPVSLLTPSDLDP", "test": "ECL (MSD Multi-Spot) binding, antigen spotted on plate; Fab 50 nM"}, "[15]": {"target": "T15, rHuman IGF-1 sR, CF (R&D Systems Cat#391-GR) (human, UniProt P08069 31-932)", "T15 construct": "Bought soluble receptor; also called insulin-like growth factor-1 soluble receptor; IGF-R1", "test": "ECL (MSD Multi-Spot) binding, antigen spotted on plate; Fab 50 nM"}, "[16]": {"target": "T16, rHuman EGF R/Fc Chimera, CF (R&D Systems Cat#344-ER) (human, UniProt P00533 25-645)", "T16 construct": "Bought Fc chimera; also called epidermal growth factor receptor; Fc part of the bought chimera not given", "test": "ECL (MSD Multi-Spot) binding, antigen spotted on plate; Fab 50 nM"}, "[17]": {"target": "T17, Recombinant Human DLL4 (R&D Systems Cat#1506-D4/CF) (human, UniProt Q9NR61 27-524)", "T17 construct": "Bought recombinant protein; also called delta-like protein 4", "test": "ECL (MSD Multi-Spot) binding, antigen spotted on plate; Fab 50 nM"}, "[18]": {"target": "T18, rHuman HGF R/c-MET/Fc Chimera, CF (R&D Systems Cat#358-MT/CF) (human, UniProt P08581 25-932)", "T18 construct": "Bought Fc chimera; also called HGF R/Fc; hepatocyte growth factor receptor; Fc part of the bought chimera not given", "test": "ECL (MSD Multi-Spot) binding, antigen spotted on plate; Fab 50 nM"}, "[19]": {"target": "T19, rHuman Notch-1/Fc Chimera, CF (R&D Systems Cat#3647-TK) (human, UniProt P46531 19-526)", "T19 construct": "Bought Fc chimera; Fc part of the bought chimera not given", "test": "ECL (MSD Multi-Spot) binding, antigen spotted on plate; Fab 50 nM"}}}
{"binder": "Fab VH1-8_IGHD2-2*01_IGHJ6*01 & L12_IGKJ1*01 (Fab, V domains shown) VH: QVQLVQSGAEVKKPGASVKVSCKASGYTFTSYDINWVRQATGQGLEWMGWMNPNSGNTGYAQKFQGRVTMTRNTSISTAYMELSSLRSEDTAVYYCARGGYCSSTSCYADYYYYYGMDVWGQGTTVTVSS VL: not shown", "values": [{"measurement": "ECL signal", "setting": "[1]", "value": 7740, "unit": "ECL signal"}, {"measurement": "ECL signal", "setting": "[2]", "value": 1750, "unit": "ECL signal"}, {"measurement": "ECL signal", "setting": "[3]", "value": 1750, "unit": "ECL signal"}, {"measurement": "ECL signal", "setting": "[4]", "value": 1760, "unit": "ECL signal"}, {"measurement": "ECL signal", "setting": "[5]", "value": 1530, "unit": "ECL signal"}, {"measurement": "ECL signal", "setting": "[6]", "value": 1970, "unit": "ECL signal"}]}
{"binder": "Fab VH1-46_IGHD6-6*01_IGHJ1*01 & L6_IGKJ1*01 (Fab, V domains shown, Expressed in E. coli as Fab: heavy chain with CH1 plus Flag and His tags from Plasmid A, kappa light chain constant region from Plasmid C; also called Fab No. 1) VH: QVQLVQSGAEVKKPGASVKVSCKASGYTFTSYYMHWVRQAPGQGLEWMGIINPSGGSTSYAQKFQGRVTMTRDTSTSTVYMELSSLRSEDTAVYYCAREEYSSSSAEYFQHWGQGTLVTVSS VL: not shown", "values": [{"measurement": "ECL signal", "setting": "[7]", "value": 17200}, {"measurement": "ECL signal", "setting": "[8]", "value": 321}, {"measurement": "ECL signal", "setting": "[9]", "value": 353}, {"measurement": "ECL signal", "setting": "[10]", "value": 378}]}
{"binder": "Fab VH1-46_IGHD6-6*01_IGHJ1*01_S102A_S103P_S104F_H111Y & L6_IGKJ1*01 (Fab, V domains shown, Fab made in E. coli; The heavy chain also carries the CH1 with Flag and His tags of Plasmid A, and the light chain the kappa constant region of Plasmid C) VH: QVQLVQSGAEVKKPGASVKVSCKASGYTFTSYYMHWVRQAPGQGLEWMGIINPSGGSTSYAQKFQGRVTMTRDTSTSTVYMELSSLRSEDTAVYYCAREEYAPFSAEYFQYWGQGTLVTVSS VL: not shown", "values": [{"measurement": "ECL signal", "setting": "[11]", "value": 589}, {"measurement": "ECL signal", "setting": "[12]", "value": 626}, {"measurement": "ECL signal", "setting": "[13]", "value": 433}, {"measurement": "ECL signal", "setting": "[14]", "value": 631}, {"measurement": "ECL signal", "setting": "[15]", "value": 460}, {"measurement": "ECL signal", "setting": "[16]", "value": 523}, {"measurement": "ECL signal", "setting": "[17]", "value": 207000}, {"measurement": "ECL signal", "setting": "[18]", "value": 325}, {"measurement": "ECL signal", "setting": "[19]", "value": 475}]}
